Assay [1] concerns the target T1, human complement C2 (human, UniProt P06681 21-752).
T1 sequence: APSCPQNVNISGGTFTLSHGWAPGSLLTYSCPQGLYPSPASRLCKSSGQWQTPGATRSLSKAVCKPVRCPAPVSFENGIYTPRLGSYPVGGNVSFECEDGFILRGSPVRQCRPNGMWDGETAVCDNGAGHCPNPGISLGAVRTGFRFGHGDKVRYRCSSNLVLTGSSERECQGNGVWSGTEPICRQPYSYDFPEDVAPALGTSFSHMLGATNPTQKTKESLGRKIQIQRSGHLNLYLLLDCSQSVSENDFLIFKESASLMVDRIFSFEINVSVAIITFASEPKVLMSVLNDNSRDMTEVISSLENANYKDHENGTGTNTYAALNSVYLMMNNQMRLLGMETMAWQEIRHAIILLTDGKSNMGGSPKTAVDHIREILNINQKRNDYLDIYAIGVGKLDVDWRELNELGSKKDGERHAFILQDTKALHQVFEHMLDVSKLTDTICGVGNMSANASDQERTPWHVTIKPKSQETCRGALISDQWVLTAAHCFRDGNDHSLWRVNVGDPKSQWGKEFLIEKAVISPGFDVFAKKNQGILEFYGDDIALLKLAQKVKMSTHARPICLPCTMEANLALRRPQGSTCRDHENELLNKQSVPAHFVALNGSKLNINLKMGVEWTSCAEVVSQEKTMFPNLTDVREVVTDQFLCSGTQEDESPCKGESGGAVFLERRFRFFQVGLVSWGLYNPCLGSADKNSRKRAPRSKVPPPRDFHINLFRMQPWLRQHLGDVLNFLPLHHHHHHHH
Briefly: cell-based or functional assay.

For assay [2], the target named is T2, cynomolgus monkey C2 (cynomolgus monkey, UniProt G8F3W0 21-752).
T2 sequence: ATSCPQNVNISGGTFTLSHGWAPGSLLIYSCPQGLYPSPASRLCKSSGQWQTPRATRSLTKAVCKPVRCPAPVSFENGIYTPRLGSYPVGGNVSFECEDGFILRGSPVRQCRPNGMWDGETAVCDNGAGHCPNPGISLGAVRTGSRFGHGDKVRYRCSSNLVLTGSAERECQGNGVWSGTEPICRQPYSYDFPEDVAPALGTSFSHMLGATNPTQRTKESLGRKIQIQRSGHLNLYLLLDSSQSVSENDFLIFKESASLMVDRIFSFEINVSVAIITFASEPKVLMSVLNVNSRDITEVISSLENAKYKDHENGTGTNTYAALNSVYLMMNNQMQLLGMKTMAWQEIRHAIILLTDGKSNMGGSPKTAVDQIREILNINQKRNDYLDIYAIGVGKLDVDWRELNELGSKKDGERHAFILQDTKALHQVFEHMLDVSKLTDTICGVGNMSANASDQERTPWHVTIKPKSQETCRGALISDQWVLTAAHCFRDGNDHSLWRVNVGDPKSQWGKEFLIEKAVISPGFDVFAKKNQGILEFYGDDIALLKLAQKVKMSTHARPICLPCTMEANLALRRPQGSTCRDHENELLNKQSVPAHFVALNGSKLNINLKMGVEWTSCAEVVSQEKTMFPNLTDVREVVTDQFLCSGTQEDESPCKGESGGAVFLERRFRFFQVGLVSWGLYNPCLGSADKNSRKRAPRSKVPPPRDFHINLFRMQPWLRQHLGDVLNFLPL
The experiment in a line: cell-based or functional assay.

Assay [3] has as its target T1, human complement C2. The experiment in a line: cell-based or functional assay. This is another data set of the same source.
In assay [4] the target is T2, cynomolgus monkey C2. The experiment in a line: cell-based or functional assay. The source holds these as a separate data set.
For assay [5], the target named is T2, cynomolgus monkey C2. The experiment in a line: SPR, mAb captured, cyno C2 analyte, pH 6.0.
Method: (§1) Surface plasmon resonance (SPR, Biacore) was used for all binding affinity analyses. In brief, goat anti-human IgG was directly immobilised onto the carboxymethyl dextran surface of CM5 sensorchips to approximately 12,000 RU using standard NHS/EDC chemistry at pH 5. The immobilised antibody surface was pre-conditioned with ten injections of polyclonal human IgG (Privigen 60 s) prepared at 1 μg/mL. Ligands (anti-C2 mAbs) were captured at the beginning of each cycle as described below. An adjacent spot or flow cell in which only Polyclonal IgG was capture was used as a reference surface. The goat anti-human IgG Fc antibody surface was regenerate in 100 mM H3PO4, injected for 45 seconds at the end of each cycle. Experiments were performed at 37° C. and the flow rate of each experiment was kept constant at 30 μL/min.
(§2) In addition to human C2, the pH dependent anti-C2 antibodies were also tested for their ability to bind to C2 from other mammalian species using the SPR methods described above in order to identify suitable surrogate species for in vivo testing. The antibodies were tested for binding at neutral pH against C2 from cynomolgus monkeys, mice, dogs, rabbits, rats, pigs, and sheep.
Assay [6] deals with T2, cynomolgus monkey C2. The experiment in a line: SPR, mAb captured, cyno C2 analyte, pH 7.3.
Method: as §1, §2
For assay [7], the target named is T3, mouse C2 (mouse, UniProt P21180 19-760, limits assumed).
T3 sequence (looked up): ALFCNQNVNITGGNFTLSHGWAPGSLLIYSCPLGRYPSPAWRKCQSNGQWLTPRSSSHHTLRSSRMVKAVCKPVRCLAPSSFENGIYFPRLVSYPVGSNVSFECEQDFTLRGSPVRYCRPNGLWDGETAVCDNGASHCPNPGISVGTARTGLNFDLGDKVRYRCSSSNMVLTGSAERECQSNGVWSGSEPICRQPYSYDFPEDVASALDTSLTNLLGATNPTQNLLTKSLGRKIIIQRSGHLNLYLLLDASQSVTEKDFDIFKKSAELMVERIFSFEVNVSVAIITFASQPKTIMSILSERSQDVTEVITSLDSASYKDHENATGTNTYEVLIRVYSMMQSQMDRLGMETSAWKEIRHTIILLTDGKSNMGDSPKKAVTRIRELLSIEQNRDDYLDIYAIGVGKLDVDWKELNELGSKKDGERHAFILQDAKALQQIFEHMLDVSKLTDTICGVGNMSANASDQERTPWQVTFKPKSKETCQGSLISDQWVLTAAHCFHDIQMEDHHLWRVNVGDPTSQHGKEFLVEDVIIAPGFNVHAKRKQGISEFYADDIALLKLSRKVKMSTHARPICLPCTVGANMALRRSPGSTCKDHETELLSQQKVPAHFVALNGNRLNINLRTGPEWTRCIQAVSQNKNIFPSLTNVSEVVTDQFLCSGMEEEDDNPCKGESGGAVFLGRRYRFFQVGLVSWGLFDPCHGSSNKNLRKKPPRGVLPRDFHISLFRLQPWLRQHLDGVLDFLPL
Briefly: SPR, mAb captured, mouse C2 analyte, pH 7.3. On the technique in general: In SPR one partner is held on a chip, and binding of the other changes the refractive index at the surface.
Method: as §1, §2

Assay [8] has as its target T1, human complement C2. Briefly: SPR, mAb captured, C2 analyte, HBS-EP, pH 6.0.
Method: as §1
(§3) The pH dependent anti-C2 antibodies and their germlined versions were tested for their affinity to C2 at pH 7.3 (neutral pH) and pH 6.0 (early endosome pH) using the SPR methods described above in HBS-EP buffer.
For assay [9], the target named is T1, human complement C2. Briefly: SPR, mAb captured, C2 analyte, HBS-EP, pH 7.3.
Method: as §1, §3
Assay [10] addresses T1, human complement C2. The experiment in a line: SPR, mAb captured, C2 analyte, MHAs buffer, pH 7.3.
Method: as §1
(§4) This buffer contains ammonium sulfate instead of sodium chloride.
In assay [11] the target is T1, human complement C2. Briefly: SPR, mAb captured, C2 analyte, MHAs buffer, pH 6.0, steady state.
Method: as §1, §4

B1: RF16-226 (antibody)
heavy: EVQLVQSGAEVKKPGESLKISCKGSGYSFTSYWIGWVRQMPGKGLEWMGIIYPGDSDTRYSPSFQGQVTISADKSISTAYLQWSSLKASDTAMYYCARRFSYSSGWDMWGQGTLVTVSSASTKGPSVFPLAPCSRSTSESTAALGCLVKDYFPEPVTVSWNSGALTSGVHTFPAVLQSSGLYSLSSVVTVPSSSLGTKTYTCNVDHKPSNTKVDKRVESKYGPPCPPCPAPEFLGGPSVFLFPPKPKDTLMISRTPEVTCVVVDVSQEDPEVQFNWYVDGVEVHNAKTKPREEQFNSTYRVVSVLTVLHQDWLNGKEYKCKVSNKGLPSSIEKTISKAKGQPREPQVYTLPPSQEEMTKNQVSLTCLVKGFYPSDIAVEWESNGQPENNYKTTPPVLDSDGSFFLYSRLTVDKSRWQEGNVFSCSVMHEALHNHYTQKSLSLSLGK
light: SYELTQPPSVSVSPGQTARITCSGDALTSKYVAWYQQKSGLAPLLVIYEDTRRPSGIPAKFSGSSSGSVATLTISGAHGDDEADYYCYSTDASGHQRVFGGGTKLTVLSQPKAAPSVTLFPPSSEELQANKATLVCLISDFYPGAVTVAWKADGSPVKAGVETTKPSKQSNNKYAASSYLSLTPEQWKSHRSYSCQVTHEGSTVEKTVAPTECS
Consider B1, for which the “IC50, inhibition of human classical complement pathway (Wieslab assay)” value in assay [1] worked out at 0.0125 µM. Besides, the “IC50, inhibition of human lectin complement pathway (Wieslab assay)” value in assay [1] was determined as 0.0056 µM. Moreover, the “IC50, inhibition of cynomolgus classical complement pathway (Wieslab assay)” value in assay [2] was 0.0188 µM. Further, in [2], the “IC50, inhibition of cynomolgus lectin complement pathway (Wieslab assay)” value was 0.14 µM. The “IC50, inhibition of human classical pathway (hemolysis assay)” value in assay [3] worked out at 0.284 µM. For the same molecule, the “IC50, inhibition of cyno classical pathway (hemolysis assay), mean of three experiments” value in assay [4] was found to be 0.123 µM. Besides, the Kd in assay [5] came out at 0.141 µM; in [6], 0.0051 µM; in assay [7] it was 0.16 µM; in [8] it was 0.114 µM; in [9], 0.0116 µM; in [10], 0.044 µM. Besides, the equilibrium dissociation constant (Kd) in assay [11] is 2.23 µM.

B2: RF16-214 (antibody, V domains shown)
VH: EVQLLESGGGLVQPGGSLRLSCAASGFTFSWYQMMWVRQAPGKGLEWVSRIYPSGGGTAYADSVKGRFTISRDNSKNTLYLQMNSLRAEDTAVYYCARDAGYGDNWGQGTLVTVSS
VL: QSALTQPPSVSVSPGQTASITCSGDKLGEKYASWYQQKAGQSPVMVIYQDRKRPSGIPERFSGSNSGNTATLTISGTQAMDEADYYCQAWDTRAVVFGGGTKLTVLG
Turning to B2, in [1], the “IC50, inhibition of human classical complement pathway (Wieslab assay)” value came out at 0.0186 µM. For the same molecule, in assay [1], the “IC50, inhibition of human lectin complement pathway (Wieslab assay)” value was determined as 0.00769 µM. In [2], the “IC50, inhibition of cynomolgus classical complement pathway (Wieslab assay)” value worked out at 0.134 µM. The “IC50, inhibition of cynomolgus lectin complement pathway (Wieslab assay)” value in [2] turned out to be 0.362 µM. The “IC50, inhibition of human classical pathway (hemolysis assay)” value in [3] stood at 0.241 µM. The “IC50, inhibition of cyno classical pathway (hemolysis assay)” value in assay [4] came out at 0.63 µM. Moreover, the Kd stood at 0.137 µM in assay [5]; 0.0468 µM in assay [6]; 0.885 µM in assay [7]; 0.148 µM in [8]; 0.031 µM in assay [9]; 0.233 µM in [10]. Also, the dissociation constant Kd in assay [11] is 2.17 µM.

By Kd is commonly meant the free concentration of one partner at which half of the binding sites on the other are occupied at equilibrium, for simple one-to-one binding.

Values taken from patent publication US20220332804A1 (CSL INNOVATION, published 2022).
